Reference: patent US20230381333A1 (HANMI PHARM, published 2023)
Bridge positions count the residues as written; N and C are the ends. Square brackets hold non-standard residues; d marks the D form. Ends that are not written are not given here. * marks the point of attachment. Acetyl(2-(4-imidazolyl)) = O=C(Cc1c[nH]cn1)*; Aib = CC(C)(N)C(=O)O

T1: human GIP receptor (human, UniProt P48546 22-466)
T1 sequence (looked up): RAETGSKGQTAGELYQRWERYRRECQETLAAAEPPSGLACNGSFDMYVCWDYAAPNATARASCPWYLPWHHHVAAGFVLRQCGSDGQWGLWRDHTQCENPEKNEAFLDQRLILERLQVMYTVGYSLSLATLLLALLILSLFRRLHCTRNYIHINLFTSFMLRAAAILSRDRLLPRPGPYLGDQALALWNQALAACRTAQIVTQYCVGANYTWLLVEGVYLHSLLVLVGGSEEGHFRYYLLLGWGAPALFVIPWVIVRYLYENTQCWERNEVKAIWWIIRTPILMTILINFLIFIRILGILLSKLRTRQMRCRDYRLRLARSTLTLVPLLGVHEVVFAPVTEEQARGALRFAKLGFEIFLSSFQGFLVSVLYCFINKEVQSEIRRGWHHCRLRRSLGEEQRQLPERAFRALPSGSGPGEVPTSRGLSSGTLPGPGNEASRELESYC


Experiments:
Assay in all cases: cell-based or functional assay
human GIP receptor = target: T1, human GIP receptor
human GLP-1 receptor = human GLP-1 receptor (human, UniProt P43220 24-463)
human GCG receptor = human GCG receptor (human, UniProt P47871 26-477)
Chain of human GCG receptor (P47871 26-477): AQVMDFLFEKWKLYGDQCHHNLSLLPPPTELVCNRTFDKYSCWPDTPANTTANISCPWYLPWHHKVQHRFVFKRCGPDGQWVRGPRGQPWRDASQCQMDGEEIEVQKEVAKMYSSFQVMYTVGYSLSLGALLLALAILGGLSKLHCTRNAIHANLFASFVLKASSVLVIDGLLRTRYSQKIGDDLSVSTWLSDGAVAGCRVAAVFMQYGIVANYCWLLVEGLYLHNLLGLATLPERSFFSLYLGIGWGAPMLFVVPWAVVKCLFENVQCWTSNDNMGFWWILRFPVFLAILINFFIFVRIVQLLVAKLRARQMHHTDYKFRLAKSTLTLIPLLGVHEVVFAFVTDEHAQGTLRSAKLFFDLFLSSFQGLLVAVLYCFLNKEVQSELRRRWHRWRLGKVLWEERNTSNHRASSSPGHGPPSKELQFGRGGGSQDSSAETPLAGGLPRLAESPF

Row | Binder | In vitro activity compared to native-type peptide (%), vs GIP (human GIP receptor) | In vitro activity compared to native-type peptide (%), vs GLP-1 (human GLP-1 receptor) | In vitro activity compared to native-type peptide (%), vs Glucagon (human GCG receptor)
1 | H[Aib]QGTFTSDYSKYLDERACQDFVQWLLDQGGPSSGAPPPS [triple agonist of SEQ ID NO: 27] | 0.9% | 83.1% | 0.8%
2 | H[Aib]QGTFTSDYSKYLDEKACKDFVQWLLDGGPSSGAPPPS (bridge 16-20) [triple agonist of SEQ ID NO: 32] | 8.8% | 151% | 1.7%
3 | H[Aib]QGTFTSDYSKYLDEKRAQEFVCWLLAQKGKKNDWKHNIT [triple agonist of SEQ ID NO: 28] | < 0.1% | 17.2% | 1.6%
4 | H[Aib]QGTFTSDCSKYLDERAAQDFVQWLLDGGPSSGAPPPS [triple agonist of SEQ ID NO: 25] | < 0.1% | 82.6% | 0.1%
5 | [Acetyl(2-(4-imidazolyl))]GQGTFTSDLSIQYEEEAQQDFVEWLKDTGPSSGAPPPSHG [triple agonist of SEQ ID NO: 20] | < 0.1% | < 0.1% | < 0.1%
6 | H[Aib]QGTFTSDYSKYLDEKACKEFVQWLLAQ (bridge 16-20) [triple agonist of SEQ ID NO: 31] | 2.4% | 135% | 2.2%
7 | Y[Aib]QGTFTSDYSKYLDECRAKEFVQWLLAQKGKKNDWKHNIT (bridge 16-20) [triple agonist of SEQ ID NO: 23] | < 0.1% | 4.01% | 9.3%
8 | Y[Aib]QGTFTSDYSKCLDEKRAKEFVQWLLDHHPSSGQPPPS (bridge 16-20) [triple agonist of SEQ ID NO: 22] | 59.7% | 20.1% | 140%
9 | H[Aib]QGTFTSDYSKYLDEKAAKEFVQWLLNTC (bridge 16-20) [triple agonist of SEQ ID NO: 29] | < 0.1% | 38.5% | 6%
10 | Y[Aib]QGTFTSDYSKYLDECRAKEFVQWLKNGGPSSGAPPPS (bridge 16-20) [triple agonist of SEQ ID NO: 24] | < 0.1% | 41.2% | 9.3%
11 | H[Aib]QGTFTSDYSIAMDEIHQKDFVNWLLAQKC (bridge 16-20) [triple agonist of SEQ ID NO: 33] | 10.4% | 24.5% | < 0.1%
12 | H[Aib]QGTFTSDVSSYLLGQAAKQFIAWLVKGGGPSSGAPPPSC [triple agonist of SEQ ID NO: 3] | < 0.1% | 1.8% | < 0.1%
13 | H[Aib]QGTFTSDYSKYLDEKAQKEFVQWLLDTC (bridge 16-20) [triple agonist of SEQ ID NO: 30] | 0.8% | 142% | 0.7%
14 | H[Aib]QGTFTSDCSKYLDSRAAQDFVQWLLDGGPSSGAPPPS [triple agonist of SEQ ID NO: 26] | < 0.1% | 64.5% | 0.2%
15 | Y[Aib]QGTFTSDYSKYLDECRAKEFVQWLLDHHPSSGQPPPS (bridge 16-20) [triple agonist of SEQ ID NO: 21] | 22.7% | 17.8% | 267%
